# T1: neurotrypsin-resistant mouse agrin C44 y4z8K/A (m)
# T1 chain: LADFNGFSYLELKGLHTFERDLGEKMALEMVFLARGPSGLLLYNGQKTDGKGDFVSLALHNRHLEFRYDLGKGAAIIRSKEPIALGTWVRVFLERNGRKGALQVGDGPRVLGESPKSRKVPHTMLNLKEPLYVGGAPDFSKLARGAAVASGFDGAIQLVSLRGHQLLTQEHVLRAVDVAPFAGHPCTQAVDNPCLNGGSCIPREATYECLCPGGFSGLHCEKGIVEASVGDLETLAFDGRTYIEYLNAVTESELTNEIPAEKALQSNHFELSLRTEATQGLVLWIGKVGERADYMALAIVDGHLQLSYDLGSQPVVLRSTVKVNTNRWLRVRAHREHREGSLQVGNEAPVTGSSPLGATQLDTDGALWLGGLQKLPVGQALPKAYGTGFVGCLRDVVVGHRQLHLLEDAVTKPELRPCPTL
# T2: neurotrypsin-resistant mouse agrin C44 y0z8K/A (m)
# T2 chain: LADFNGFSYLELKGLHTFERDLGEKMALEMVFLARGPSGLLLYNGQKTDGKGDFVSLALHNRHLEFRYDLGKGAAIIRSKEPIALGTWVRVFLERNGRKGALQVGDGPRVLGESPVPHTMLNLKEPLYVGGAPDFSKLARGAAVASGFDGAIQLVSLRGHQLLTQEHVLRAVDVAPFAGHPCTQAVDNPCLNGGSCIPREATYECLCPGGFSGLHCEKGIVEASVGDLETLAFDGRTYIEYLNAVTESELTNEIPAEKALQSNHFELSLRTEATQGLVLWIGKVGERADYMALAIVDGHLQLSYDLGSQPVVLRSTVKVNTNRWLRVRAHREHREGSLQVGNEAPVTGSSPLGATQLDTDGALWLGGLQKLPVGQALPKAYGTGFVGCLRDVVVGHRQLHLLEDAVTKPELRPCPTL
# T3: neurotrypsin-resistant human agrin C44 y0z8K/A (h)
# T3 chain: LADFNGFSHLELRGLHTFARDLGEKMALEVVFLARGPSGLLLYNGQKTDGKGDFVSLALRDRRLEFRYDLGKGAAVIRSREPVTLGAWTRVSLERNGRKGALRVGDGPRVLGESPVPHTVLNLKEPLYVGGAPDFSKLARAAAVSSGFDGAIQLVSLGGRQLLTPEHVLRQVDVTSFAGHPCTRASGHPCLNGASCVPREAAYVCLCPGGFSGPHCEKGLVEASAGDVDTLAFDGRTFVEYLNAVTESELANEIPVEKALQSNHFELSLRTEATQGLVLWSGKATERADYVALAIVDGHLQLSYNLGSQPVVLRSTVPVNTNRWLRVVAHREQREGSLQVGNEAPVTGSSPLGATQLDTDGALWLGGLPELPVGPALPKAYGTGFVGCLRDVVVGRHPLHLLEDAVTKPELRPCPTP
# T4: human agrinC44 y4z8
# T4 chain: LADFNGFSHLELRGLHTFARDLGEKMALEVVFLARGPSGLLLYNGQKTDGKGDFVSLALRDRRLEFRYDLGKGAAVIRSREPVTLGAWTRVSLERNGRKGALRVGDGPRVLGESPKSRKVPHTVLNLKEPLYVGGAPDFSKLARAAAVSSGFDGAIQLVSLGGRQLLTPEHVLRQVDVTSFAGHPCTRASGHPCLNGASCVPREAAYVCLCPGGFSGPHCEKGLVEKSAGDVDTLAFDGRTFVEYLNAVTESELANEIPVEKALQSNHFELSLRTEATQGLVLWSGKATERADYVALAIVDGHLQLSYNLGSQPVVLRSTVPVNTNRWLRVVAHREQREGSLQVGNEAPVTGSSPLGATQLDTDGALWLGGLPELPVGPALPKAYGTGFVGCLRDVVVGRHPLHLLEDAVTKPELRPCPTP
# T5: neurotrypsin-resistant human agrin C44 y4z8K/A with N-terminal His8 tag (C44K/A)
# T5 chain: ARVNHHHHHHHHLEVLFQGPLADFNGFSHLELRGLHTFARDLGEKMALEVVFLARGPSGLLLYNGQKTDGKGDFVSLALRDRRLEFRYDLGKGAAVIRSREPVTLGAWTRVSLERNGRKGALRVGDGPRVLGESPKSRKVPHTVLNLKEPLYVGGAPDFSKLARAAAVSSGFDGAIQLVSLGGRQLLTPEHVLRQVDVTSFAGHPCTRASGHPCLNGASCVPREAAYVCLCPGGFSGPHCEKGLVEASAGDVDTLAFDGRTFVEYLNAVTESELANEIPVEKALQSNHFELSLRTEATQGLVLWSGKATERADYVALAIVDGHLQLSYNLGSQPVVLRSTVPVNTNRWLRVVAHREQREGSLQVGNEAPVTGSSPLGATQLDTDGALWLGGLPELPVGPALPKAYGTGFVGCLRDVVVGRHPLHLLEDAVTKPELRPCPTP
# T6: neurotrypsin-resistant human agrin C44 y4z0K/A
# T6 chain: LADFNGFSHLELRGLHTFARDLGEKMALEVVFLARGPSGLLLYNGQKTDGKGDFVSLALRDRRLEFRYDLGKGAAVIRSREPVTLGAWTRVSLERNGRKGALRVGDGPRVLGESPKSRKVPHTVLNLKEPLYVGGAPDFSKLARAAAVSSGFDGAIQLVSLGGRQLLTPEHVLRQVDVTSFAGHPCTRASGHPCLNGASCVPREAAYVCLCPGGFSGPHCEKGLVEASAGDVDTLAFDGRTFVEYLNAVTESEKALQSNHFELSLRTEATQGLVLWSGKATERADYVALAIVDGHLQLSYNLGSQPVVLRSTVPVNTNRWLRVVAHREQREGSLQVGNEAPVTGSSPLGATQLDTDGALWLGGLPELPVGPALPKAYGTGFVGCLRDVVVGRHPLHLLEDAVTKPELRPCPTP
# Tests used:
# [1] = target: T1, neurotrypsin-resistant mouse agrin C44 …
# [2] = target: T2, neurotrypsin-resistant mouse agrin C44 …
# [3] = target: T3, neurotrypsin-resistant human agrin C44 …
# human agrinC44 y4z8 = target: T4, human agrinC44 y4z8
# [4] = target: T5, neurotrypsin-resistant human agrin C44 …
# [5] = target: T6, neurotrypsin-resistant human agrin C44 …
protein,measurement,setting,value
human neurotrypsin (protein) FDSVLNDSLHHSHRHSPPAGPHYPYYLPTQQRPPRTRPPPPLPRFPRPPRALPAQRPHALQAGHTPRPHPWGCPAGEPWVSVTDFGAPCLRWAEVPPFLERSPPASWAQLRGQRHNFCRSPDGAGRPWCFYGDARGKVDWGYCDCRHGSVRLRGGKNEFEGTVEVYASGVWGTVCSSHWDDSDASVICHQLQLGGKGIAKQTPFSGLGLIPIYWSNVRCRGDEENILLCEKDIWQGGVCPQKMAAAVTCSFSHGPTFPIIRLAGGSSVHEGRVELYHAGQWGTVCDDQWDDADAEVICRQLGLSGIAKAWHQAYFGEGSGPVMLDEVRCTGNELSIEQCPKSSWGEHNCGHKEDAGVSCTPLTDGVIRLAGGKGSHEGRLEVYYRGQWGTVCDDGWTELNTYVVCRQLGFKYGKQASANHFEESTGPIWLDDVSCSGKETRFLQCSRRQWGRHDCSHREDVSIACYPGGEGHRLSLGFPVRLMDGENKKEGRVEVFINGQWGTICDDGWTDKDAAVICRQLGYKGPARARTMAYFGEGKGPIHVDNVKCTGNERSLADCIKQDIGRHNCRHSEDAGVICDYFGKKASGNSNKESLSSVCGLRLLHRRQKRIIGGKNSLRGGWPWQVSLRLKSSHGDGRLLCGATLLSSCWVLTAAHCFKRYGNSTRSYAVRVGDYHTLVPEEFEEEIGVQQIVIHREYRPDRSDYDIALVRLQGPEEQCARFSSHVLPACLPLWRERPQKTASNCYITGWGDTGRAYSRTLQQAAIPLLPKRFCEERYKGRFTGRMLCAGNLHEHKRVDSCQGDSGGPLMCERPGESWVVYGVTSWGYGCGVKDSPGVYTKVSAFVPWIKSVTKL,"proteolytic digestion by human neurotrypsin, SDS-PAGE (FIG. 11)",[1],the C44K/A-fragments as shown in the FIGS. 2b and 7-10 are not digested by neurotrypsin
same,"proteolytic digestion by human neurotrypsin, SDS-PAGE (FIG. 11)",[2],the C44K/A-fragments as shown in the FIGS. 2b and 7-10 are not digested by neurotrypsin
same,"proteolytic digestion by human neurotrypsin, SDS-PAGE (FIG. 11)",[3],the C44K/A-fragments as shown in the FIGS. 2b and 7-10 are not digested by neurotrypsin
same,"proteolytic digestion of the agrin fragment by human neurotrypsin, SDS-PAGE (Sypro ruby); control substrate with intact β-cleavage site, cleavage implied",human agrinC44 y4z8,The mutation K to A in the β-cleavage site efficiently abolishes a cleavage of the agrin fragment
same,"proteolytic digestion by human neurotrypsin, SDS-PAGE (FIG. 11)",[4],the C44K/A-fragments as shown in the FIGS. 2b and 7-10 are not digested by neurotrypsin
same,"proteolytic digestion of the agrin fragment by human neurotrypsin, SDS-PAGE (Sypro ruby)",[4],The mutation K to A in the β-cleavage site efficiently abolishes a cleavage of the agrin fragment
same,"proteolytic digestion by human neurotrypsin, SDS-PAGE (FIG. 11)",[5],the C44K/A-fragments as shown in the FIGS. 2b and 7-10 are not digested by neurotrypsin

# Reference: US20120208765
